Consider four molecules from PMC6330308, “Light-Induced Thiol Oxidation of Recoverin Affects Rhodopsin Desensitization” (Frontiers in Molecular Neuroscience, 2018).

First the molecules themselves.
B2: Recoverin mutant C39D (natural protein, bovine)
chain: GNSKSGALSKEILEELQLNTKFTEEELSSWYQSFLKEDPSGRITRQEFQTIYSKFFPEADPKAYAQHVFRSFDANSDGTLDFKEYVIALHMTSAGKTNQKLEWAFSLYDVDGNGTISKNEVLEIVTAIFKMISPEDTKHLPEDENTPEKRAEKIWGFFGKKDDDKLTEKEFIEGTLANKEILRLIQFEPQKVKEKLKEKKL
modifications: N-terminal myristoyl group (degree of myristoylation more than 95%)

Experiment [1] has as its target GRK1 (rhodopsin kinase) (bovine (endogenous in ROS)) (UniProt P28327).
The target in experiment [2] is N-terminal domain of GRK1 (amino acids Met1-Gly183) fused with glutathione-S-transferase (UniProt P28327). In words: SPR; GST-fused N-GRK1 or 1-25GRK1 immobilised by amine coupling on ProteOn GLH chip; recoverin forms 1-40 uM as analyte; 25°C; 10 mM HEPES, 150 mM NaCl, 0.05% TWEEN 20, pH 7.4, 1 mM CaCl2, 2 mM MgCl2; global fit to heterogeneous ligand model. (In general: Surface plasmon resonance follows binding to a sensor surface in real time, without labels.)

In experiment [3] the target is N-terminal fragment of GRK1 (amino acids M1-S25) fused with glutathione-S-transferase (UniProt P28327). Described as above.
Experiment [4] concerns the target T1, Recombinant myristoylated bovine recoverin (reduced monomer) (bovine, UniProt P21457 2-202, N-terminal myristoyl group (degree of myristoylation more than 95%)).
T1 construct: recoverin, bovine, recombinant wild type, myristoylated, C39 thiol reduced; Myristoylation implies that the initiator Met is removed and Gly2 carries the myristoyl group (surmised); also called RmRec; reduced monomer of recombinant wild type recoverin; source: recombinant, prepared according to previously published procedure (Zernii et al., 2011)
T1 sequence: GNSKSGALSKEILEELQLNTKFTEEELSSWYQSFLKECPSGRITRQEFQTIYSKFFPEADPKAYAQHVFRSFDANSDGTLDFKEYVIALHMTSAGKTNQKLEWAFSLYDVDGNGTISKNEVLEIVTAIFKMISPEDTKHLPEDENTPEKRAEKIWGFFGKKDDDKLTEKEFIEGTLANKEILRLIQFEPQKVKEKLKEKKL
Described as above. The following applies: both partners purified.

Experiment [5] has as its target T2, Oxidized monomer of recombinant wild type recoverin (bovine, UniProt P21457 2-202, N-terminal myristoyl group; C39 thiol oxidized (sulfenic/sulfinic acid; Figure 9 legend: C39 converted into sulfinic acid)).
T2 construct: recoverin, bovine, recombinant wild type, myristoylated, monomer with oxidized C39; also called OmRec; thiol-oxidized monomer of recoverin; source: prepared from RmRec by incubation with 0.005% H2O2 at 30°C for 5 h, separated by gel-filtration (Superdex 75)
T2 sequence: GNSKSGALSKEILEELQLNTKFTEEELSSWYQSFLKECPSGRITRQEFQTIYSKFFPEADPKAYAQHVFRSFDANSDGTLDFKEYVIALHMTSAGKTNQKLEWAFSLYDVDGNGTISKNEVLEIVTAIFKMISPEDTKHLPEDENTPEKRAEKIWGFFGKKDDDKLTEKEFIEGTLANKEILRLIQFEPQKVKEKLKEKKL
Described as above. The following applies: both partners purified.

The experiment “Recoverin mutant C39D” has as its target B2. The experiment is described as above. The following applies: both partners purified.
The target of a further experiment is T3, GRK1 (rhodopsin kinase) (bovine (endogenous in ROS), UniProt P28327 1-561).
T3 sequence (looked up): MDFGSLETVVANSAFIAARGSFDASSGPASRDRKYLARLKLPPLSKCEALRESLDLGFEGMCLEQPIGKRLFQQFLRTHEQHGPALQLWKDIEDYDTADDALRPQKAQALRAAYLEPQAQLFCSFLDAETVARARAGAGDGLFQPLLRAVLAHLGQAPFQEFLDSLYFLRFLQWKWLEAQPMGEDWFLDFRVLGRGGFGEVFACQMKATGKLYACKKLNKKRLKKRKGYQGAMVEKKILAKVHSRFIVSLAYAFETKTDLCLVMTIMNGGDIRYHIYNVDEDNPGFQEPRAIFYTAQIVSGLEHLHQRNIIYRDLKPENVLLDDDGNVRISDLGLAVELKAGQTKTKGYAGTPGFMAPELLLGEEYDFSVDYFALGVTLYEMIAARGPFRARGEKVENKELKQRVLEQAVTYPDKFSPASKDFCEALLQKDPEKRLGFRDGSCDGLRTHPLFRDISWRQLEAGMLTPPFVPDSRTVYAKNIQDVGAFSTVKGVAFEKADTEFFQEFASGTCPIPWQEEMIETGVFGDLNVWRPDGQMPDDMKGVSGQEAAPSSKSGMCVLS
In words: cell-based or functional assay.

Take “Disulfide dimer of recombinant wild type recoverin (from UniProt P21457 2-202) (complex)”: the inhibition of GRK1 in rhodopsin phosphorylation assay, 20 uM dRec, 0.01 uM free Ca2+ in experiment [1] was found to be 40%. For the same molecule, the inhibition of GRK1 in rhodopsin phosphorylation assay, 20 uM dRec, 200 uM free Ca2+ in experiment [1] was determined as 70%. Moreover, the results for the Kd in experiment [2] and in experiment [3] were 31.3 µM and 31.2 µM, respectively.

B1: N-terminal domain of GRK1 (amino acids Met1-Gly183) fused with glutathione-S-transferase (domain or fragment, UniProt P28327 1-183, looked up)
chain: MDFGSLETVVANSAFIAARGSFDASSGPASRDRKYLARLKLPPLSKCEALRESLDLGFEGMCLEQPIGKRLFQQFLRTHEQHGPALQLWKDIEDYDTADDALRPQKAQALRAAYLEPQAQLFCSFLDAETVARARAGAGDGLFQPLLRAVLAHLGQAPFQEFLDSLYFLRFLQWKWLEAQPMG
notes: GRK1 (rhodopsin kinase), N-terminal domain, amino acids Met1-Gly183; also called N-GRK1; N-terminal domain of rhodopsin kinase; source: obtained according to previously published procedure (Grigoriev et al., 2012)
With B1, the results for the Kd (in experiment [4]; in experiment [5]; with Recoverin mutant C39D) were 5.35 µM, 31.3 µM and 50.2 µM, respectively.
B2: the “inhibition of GRK1 in rhodopsin phosphorylation assay, 40 uM C39D, 200 uM free Ca2+; decline of inhibitory efficiency against RmRec” value with GRK1 (rhodopsin kinase) was around 2 fold.

B3: N-terminal fragment of GRK1 (amino acids M1-S25) fused with glutathione-S-transferase (domain or fragment, UniProt P28327 1-25, looked up)
chain: MDFGSLETVVANSAFIAARGSFDAS
notes: GRK1 (rhodopsin kinase), fragment M1-S25; also called 1-25GRK1; 1-25RK; source: obtained according to previously published procedure (Grigoriev et al., 2012)
In the case of B3, the Kd came out at 10.5 µM in experiment [4], 16 µM in experiment [5] and 31.3 µM with Recoverin mutant C39D.

What is called Kd is the concentration at which binding is half-saturated.
